Values joined by “and” are separate entries in the source; they are usually repeats but may differ in a detail not shown here. Identical values can stand only once.
Assays:
Fc protein = assay: phage ELISA on coated Fc protein, blank control
[1] = target: CD8α-Fc fusion protein (human); assay: phage ELISA on coated CD8α-Fc, blank control
Sequence of CD8α-Fc fusion protein (human) (chain, as listed by the source): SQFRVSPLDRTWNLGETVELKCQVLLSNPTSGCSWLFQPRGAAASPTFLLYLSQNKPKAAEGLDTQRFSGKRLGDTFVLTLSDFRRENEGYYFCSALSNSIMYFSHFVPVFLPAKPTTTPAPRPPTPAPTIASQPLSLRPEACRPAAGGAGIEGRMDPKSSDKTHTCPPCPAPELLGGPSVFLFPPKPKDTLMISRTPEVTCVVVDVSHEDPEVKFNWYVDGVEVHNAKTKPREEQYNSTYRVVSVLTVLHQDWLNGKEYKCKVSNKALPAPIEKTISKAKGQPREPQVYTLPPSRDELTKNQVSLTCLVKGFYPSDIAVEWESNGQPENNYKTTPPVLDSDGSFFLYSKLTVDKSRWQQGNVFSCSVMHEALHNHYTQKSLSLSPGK

Substance: blank phage
- OD450 (Fc protein): 0.093 and 0.068
- OD450 [1]: 0.067
